Results reported in US20220073619A1 (IMCHECK THERAPEUTICS, published 2022).
Like-named read-outs stand apart in the source and are kept apart here.

B1: Chimeric 103.2 F(ab′)2 fragment (other)
VH: QVQMQQSGAEVVRPGTSVKVSCKASGYAFTSYLIHWIKQRPGQGLEWIGVINPRSGDSHYNEKFKDRTTLTADQSSSTAYMQLSSLTSDDSAVYFCARSDYGAYWGQGTLVTVSS
VL: DIVLTQSPVTLSVTPGDSVSLSCRASQSISNNLHWYRQKSHESPRLLIKYASQSIFGIPSRFSGSGSGTEFTLSINSVETEDFGIYFCQQSNSWPHTFGTGTKLELK
B2: Humanized 103.2 (hu103.2) F(ab′)2 fragment (other)
VH: QVQMQQSGAEVKKPGASVKVSCKASGYAFTSYLIHWIKQRPGQGLEWIGVINPRSGDSHYNEKFKDRVTMTADQSISTAYMELSRLRSDDTAVYYCARSDYGAYWGQGTLVTVSS
VL: EIVLTQSPATLSVSPGERATLSCRASQSISNNLHWYQQKPGQAPRLLIKYASQSAFGIPARFSGSGSGTEFTLTISSLQSEDFAVYFCQQSNSWPHTFGQGTKLEIK

Tests used:
[1] = target: T1, Human BTN3A1 His-tagged antigen (Sino Biological Cat. No. 15973-H08H) (human, UniProt O00481 30-254); assay: SPR Biacore T200, single cycle kinetics, BTN3A1-His captured on anti-His CM5 chip, F(ab′)2 as analyte, bivalent analyte model (ka 1), 25 C
T1 construct: Bought recombinant protein; also called recombinant human BTN3A1-His; not shown: His tag
T1 sequence (O00481 30-254 limits assumed): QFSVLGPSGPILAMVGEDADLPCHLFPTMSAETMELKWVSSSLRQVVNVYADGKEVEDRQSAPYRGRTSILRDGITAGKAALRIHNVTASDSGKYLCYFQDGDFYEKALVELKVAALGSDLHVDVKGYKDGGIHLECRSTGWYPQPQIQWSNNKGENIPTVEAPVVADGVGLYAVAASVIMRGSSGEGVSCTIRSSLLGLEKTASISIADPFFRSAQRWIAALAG
Method: (§1) All single cycle kinetic experiments were run at 25° C. with HBS-P+ running buffer (pH 7.4) containing 0.1% BSA (GE Healthcare, Little Chalfont, UK).
(§2) Human BTN3A1 His-tagged antigen (Sino Biological, Beijing, China) was diluted in running buffer to a final concentration of 0.4 μg/mL. At the start of each cycle, BTN3A1-His was captured onto Fc2 of CM5 sensor chip pre-coupled using a His capture kit (GE Healthcare, Little Chalfont, UK) with standard amine chemistry at a flow rate of 10 μL/min. An immobilization level (RL) of ˜17 RU or 8 RU, the different theoretical values to obtain a RMax of ˜25 RU was used for the analytes Fab and F(ab′)₂ respectively. The surface was then allowed to stabilize. Single cycle kinetics data was obtained with the purified samples (Fab and F(ab′)₂)) at a flow rate of 40 μL/min to minimize any potential mass transfer effects. The signal from the reference channel Fc1 (no antigen capture) was subtracted from that of Fc2 to correct for differences in non-specific binding to the reference surface. […] The signal for BTN3A1-His blank runs (no analyte) were subtracted to correct for differences in surface stability. The association phase for the five injections of increasing concentrations was monitored for 240 seconds each time and a single dissociation phase was measured for 2000 seconds following the last injection of analyte. […]

[2] = target: Human BTN3A, membrane displayed on cells (human PBMCs, Daudi cells, SKOV-3 cells) (human), O00481; assay: cell-based or functional assay
[3] = target: T1, Human BTN3A1 His-tagged antigen (Sino …); assay: SPR Biacore T200, single cycle kinetics, BTN3A1-His captured on anti-His CM5 chip, F(ab′)2 as analyte, bivalent analyte model (kd 1), 25 C
Method: as §1, §2

[4] = target: T1, Human BTN3A1 His-tagged antigen (Sino …); assay: SPR Biacore T200, single cycle kinetics, BTN3A1-His captured on anti-His CM5 chip, F(ab′)2 as analyte, bivalent analyte model (kd 2), 25 C
Method: as §1, §2

[5] = target: T1, Human BTN3A1 His-tagged antigen (Sino …); assay: as above; remark: listed apart in the source
Method: (§3) Human BTN3A1 His-tagged antigen (Sino Biological, Beijing, China) was diluted in running buffer to a final concentration of 0.4 μg/mL. At the start of each cycle, human BTN3A1-His was captured onto Fc2 of CM5 sensor chip pre-coupled using a His capture kit (GE Healthcare, Little Chalfont, UK) with standard amine chemistry at a flow rate of 10 μL/min. An immobilization level (RL) of ˜34 RU, 16 RU or 11 RU, the different theoretical values to obtain a RMax of ˜50 RU was used for the analytes Fab, F(ab′)₂ and IgG respectively. The surface was then allowed to stabilize. Single cycle kinetic data was obtained with the purified samples (Fab, F(ab′)₂ and IgG) at a flow rate of 40 μL/min to minimize any potential mass transfer effects. The signal from the reference channel Fc1 (no antigen capture) was subtracted from that of Fc2 to correct for differences in non-specific binding to the reference surface. The signal for human BTN3A1-His blank runs (no analyte) were subtracted to correct for differences in surface stability. The association phase for the five injections of increasing concentrations was monitored for 240 seconds each time and a single dissociation phase was measured for 1400 seconds following the last injection of analyte. Regeneration of the chip surface was conducted using two injections of 10 mM glycine-HCL pH 1.5 followed by a stabilization period of 240 seconds.

[6] = target: T1, Human BTN3A1 His-tagged antigen (Sino …); assay: SPR Biacore T200, single cycle kinetics, BTN3A1-His captured on anti-His CM5 chip, F(ab′)2 as analyte, bivalent analyte model (ka 1), 25 C; remark: listed apart in the source
Method: as §3

[7] = target: T1, Human BTN3A1 His-tagged antigen (Sino …); assay: SPR Biacore T200, single cycle kinetics, BTN3A1-His captured on anti-His CM5 chip, F(ab′)2 as analyte, bivalent analyte model (kd 1), 25 C; remark: listed apart in the source
Method: as §3

[8] = target: T1, Human BTN3A1 His-tagged antigen (Sino …); assay: BLI OctetRed96, F(ab′)2 loaded on FAB2G (anti-human CH1) sensors, human BTN3A1 as analyte 1.87-60 nM, 1:1 model, 30 C
Method: All runs (including loading, equilibration, association/dipping of sensors into analyte, dissociation and regeneration) were performed in black 96-well plates (Greiner) at 30° C. with shaking 1000 rpm using an OctetRed96 (ForteBio). […] The association of antibody or fragments with various concentrations of human BTN3A1 (60, 30, 15, 7.5, 3.75 and 1.87 nM) was monitored for 300 s, and the dissociation was followed for typically 500 s in kinetic buffer. Fitting of the data and constant measurements were performed with the Octet Red system software (version 7.1) using the 1:1 model. A control with an irrelevant antibody was used in order to assess the absence of non-specific binding of the target protein.

| Binder | kon [1] | % CD107+ of Vγ9Vδ2 T cells, co-culture with Daudi cells, fragment at 10 µg/mL [2] | koff [3] | kd 2 [4] | % CD25+ of Vγ9Vδ2 T cells within PBMCs, 67 nM, 5 days [2] | % CTV dilution of Vγ9Vδ2 T cells within PBMCs, 67 nM, 5 days [2] | EC50 (nM) in Vγ9Vδ2 T cell degranulation assay (CD107) against Daudi [2] | EC50 (nM) in Vγ9Vδ2 T cell degranulation assay (CD107) against SKOV-3 [2] | kd 2 [5] | kon [6] | koff [7] | Kd [8] | koff [8] | kon [8] |
| --- | --- | --- | --- | --- | --- | --- | --- | --- | --- | --- | --- | --- | --- | --- |
| B1 | 213000 M⁻¹ s⁻¹ | 40.8% | 0.00112 s⁻¹ | 34.1 s⁻¹ |  |  |  |  |  |  |  |  |  |  |
| B2 |  |  |  |  | 43.2% | 42% | 0.0005 nM | 0.0005 nM | 35.9 s⁻¹ | 689000 M⁻¹ s⁻¹ | 0.00162 s⁻¹ | 1230 pM | 0.000243 s⁻¹ | 198000 M⁻¹ s⁻¹ |
